Values quoted from earlier work as cited in paper PMC3461832.

What was measured:
[1] = biological target: fibrinogen Bβ chain peptide β1-25 1-25 (Homo sapiens) (UniProt P02675)
[2] = biological target: fibrinogen Bβ chain 6-20 (Homo sapiens) (UniProt P02675)

Chain of UniProt P02675 (P02675 1-25): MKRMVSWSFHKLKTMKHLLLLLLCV

**Q.** For SdrG (from UniProt Q9KI13), which Kd [1] is on record?
**A.** The Kd was 140 nM.

**Q.** What about the Kd [2] of the same substance?
**A.** Its Kd is 90 nM.
